This test has as its target ago2_human AGO2 (UniProt Q9UKV8).

Data on two substances can be found in IntAct's records for PubMed 20671708.

ago2_human AGO2, sequence (Q9UKV8 whole entry): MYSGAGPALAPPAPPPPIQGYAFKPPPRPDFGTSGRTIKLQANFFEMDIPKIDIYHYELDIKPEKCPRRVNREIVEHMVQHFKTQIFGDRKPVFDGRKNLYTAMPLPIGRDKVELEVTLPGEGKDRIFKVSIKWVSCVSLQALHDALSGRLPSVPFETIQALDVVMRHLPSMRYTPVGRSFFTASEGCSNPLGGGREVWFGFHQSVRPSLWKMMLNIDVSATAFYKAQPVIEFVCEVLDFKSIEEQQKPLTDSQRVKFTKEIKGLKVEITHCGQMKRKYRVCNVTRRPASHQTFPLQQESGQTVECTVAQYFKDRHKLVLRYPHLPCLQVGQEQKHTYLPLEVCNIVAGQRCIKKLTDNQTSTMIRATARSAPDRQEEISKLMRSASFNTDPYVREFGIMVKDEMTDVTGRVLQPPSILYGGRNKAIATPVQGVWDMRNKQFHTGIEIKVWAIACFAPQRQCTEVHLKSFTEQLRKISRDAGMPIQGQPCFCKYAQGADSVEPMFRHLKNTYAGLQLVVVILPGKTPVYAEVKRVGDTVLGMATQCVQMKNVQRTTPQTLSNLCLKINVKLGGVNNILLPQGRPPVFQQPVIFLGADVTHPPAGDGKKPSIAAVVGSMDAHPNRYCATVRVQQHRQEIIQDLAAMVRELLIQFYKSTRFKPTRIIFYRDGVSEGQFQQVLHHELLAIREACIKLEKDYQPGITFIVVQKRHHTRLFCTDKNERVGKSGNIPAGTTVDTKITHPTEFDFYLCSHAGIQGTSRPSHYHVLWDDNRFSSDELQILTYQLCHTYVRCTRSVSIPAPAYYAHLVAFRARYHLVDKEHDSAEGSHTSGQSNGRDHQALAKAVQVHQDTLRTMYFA

On to “Leucine-rich repeat serine/threonine-protein kinase 2 (Homo sapiens), Q5S007 G2019S”, for which the “effect of a mutation on the interaction” value is reported as “increasing interaction”.

Take “Leucine-rich repeat serine/threonine-protein kinase 2 (Homo sapiens), Q5S007 K1906M;D1994A;D2017A”: the “effect of a mutation on the interaction” value is given as “increasing interaction”.
